Measurements: PMC4938386, “Calcium Influx of Mast Cells Is Inhibited by Aptamers Targeting the First Extracellular Domain of Orai1”

T1: Orai1 peptide (first extracellular domain) (UniProt Q96D31)
T1 chain: DADHDYPPGLL

B1: ONT3 (ssDNA)
DNA: GGTACCGCAGAATTGGGAAGAGATAGA
B2: ONT2 (ssDNA)
DNA: TAGGATCCCCAGACCTGCCCGCCATGT
B3: ONT1 (ssDNA)
DNA: TCAAGCTTATGACCGAGCGCCGCGTGCC

What was measured:
[1] = target: Orai1 peptide (first extracellular domain) (UniProt Q96D31); assay: ELONA; details: 0.1 ug/well aptamer; lowest of six; value from stated range; SHCMK: 20 mM Hepes pH 7.35, 120 mM KCl, 1 mM CaCl2, 1 mM MgCl2; 37 C, 3 h (2 h for Kd); peptide-coated plates, wash with 0.05% Tween …
Target sequence in this assay (Q96D31 whole entry, looked up, the tested form may be a part): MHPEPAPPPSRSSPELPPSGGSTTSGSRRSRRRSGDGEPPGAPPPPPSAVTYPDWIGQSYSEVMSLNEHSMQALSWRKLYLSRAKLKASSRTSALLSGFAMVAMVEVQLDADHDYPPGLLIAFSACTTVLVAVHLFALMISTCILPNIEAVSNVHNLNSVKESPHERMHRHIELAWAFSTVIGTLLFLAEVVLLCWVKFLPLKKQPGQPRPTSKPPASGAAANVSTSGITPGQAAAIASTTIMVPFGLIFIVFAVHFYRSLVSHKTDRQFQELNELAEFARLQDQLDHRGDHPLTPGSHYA

[2] = target: T1, Orai1 peptide (first extracellular …); assay: ELONA; SHCMK: 20 mM Hepes pH 7.35, 120 mM KCl, 1 mM CaCl2, 1 mM MgCl2; 37 C, 3 h (2 h for Kd); peptide-coated plates, wash with 0.05% Tween 20; details: tags: none stated; coated on polystyrene plate; label: biotin

Row | Molecule | binding signal [1] | binding result [2]
1 | TGCGAGCATCTCGCTATCAGAGTGAGGTGATTTGTGCATA [Aptamer Y8] | 1.18 OD450 | –
2 | B1 | – | no binding
3 | B2 | – | no binding
4 | B3 | – | no binding
